How the values were obtained:
[1] = molecular target: human IGF2R on cells (human) (UniProt P11717); test: cell-based or functional assay
rat IGF2R on cells (rat) = test: cell-based or functional assay
[2] = molecular target: recombinant human extracellular domain of IGF2R (human) (UniProt P11717); test: binding assay on hIGF2R-ECD coated plates, detection with anti-VHH antibody
[3] = molecular target: recombinant human extracellular domain of IGF2R (human) (UniProt P11717); test: binding assay on plates coated with hIGF2R-ECD, three-fold VHH dilutions, bound VHH detected with anti-VHH antibody (Example 4.1); y axis OD415
[4] = molecular target: recombinant human extracellular domain of IGF2R (human) (UniProt P11717); test: titration ELISA on hIGF2R-ECD, direct read out at 647 nm, one-site specific binding fit
[5] = molecular target: recombinant human extracellular domain of IGF2R (human) (UniProt P11717); test: titration ELISA on recombinant hIGF2R-ECD, direct read-out of the Alexa Fluor 647 conjugate (fluorescence intensity 700 nm), one-site specific binding fit (Examples 4.1, 6.1)
[6] = molecular target: recombinant human extracellular domain of IGF2R (human) (UniProt P11717); test: titration ELISA of the Alexa Fluor 647 conjugate on recombinant hIGF2R-ECD, one-site specific binding fit
[7] = molecular target: recombinant human extracellular domain of IGF2R (human) (UniProt P11717); test: competition ELISA on human IGF2R ectodomain: 250 nM unlabelled 13E8 against 10 nM labelled 13F11 (competitor: 13F11-A647)

| Binder | EC50 (read off the curve) [3] [nM] | Bmax [5] | Kd [6] [nM] | also measured |
| --- | --- | --- | --- | --- |
| 13E8-13F11 conjugated to IRD800CW (VHH, not shown: small tags and cut ends, IRD800CW by maleimide chemistry on the C-terminal free cysteine) EVQLVESGGGLVQAGGSLRLSCAASRSISPMGWYRQAPGKQRELVAIMPSSGPPIYADSVQGRFTISRDNAKNTVYLQMNSLKPEDTAVYYCNVGGGYWGQGTQVTVSSGGGGSGGGGSGGGGSEVQLVESGGRLVQPGDSLRLSCAASGRTFSDNAMGWFRQAPGKERRFVAGISWAGGSTYYSDSVKGRFTISRDNAKNTVYLQMNSLKPEDTAVYYCAAGLRAWVQRMPKDYNYWGQGTQVTVSS |  |  |  | endocytic rate constant, ke [1]: 1.5 min⁻¹; endocytic rate constant, ke (rat IGF2R on cells (rat)): 0.7 min⁻¹ |
| 13F11 (VHH) VHH: EVQLVESGGRLVQPGDSLRLSCAASGRTFSDNAMGWFRQAPGKERRFVAGISWAGGSTYYSDSVKGRFTISRDNAKNTVYLQMNSLKPEDTAVYYCAAGLRAWVQRMPKDYNYWGQGTQVTVSS | 0.4 |  |  | Kd [2]: 0.23 nM |
| 13C11 (VHH) VHH: EVQLVESGGGLVQAGGSLRLSCAASGLTFSSYTMAWYRQAPGKEREVVAAISSGDSIYHEGSVQGRFIISRDNAKNTVYLQMNSLKAEDTAVYYCRANGPGTYWGQGTQVTVSS | 3 |  |  |  |
| 13F11 conjugated to Alexa Fluor 647 (VHH, not shown: small tags and cut ends, Alexa Fluor 647 by maleimide chemistry on the C-terminal free cysteine) VHH: EVQLVESGGRLVQPGDSLRLSCAASGRTFSDNAMGWFRQAPGKERRFVAGISWAGGSTYYSDSVKGRFTISRDNAKNTVYLQMNSLKPEDTAVYYCAAGLRAWVQRMPKDYNYWGQGTQVTVSS |  | 20.1 |  | Kd [4]: 1 nM |
| 13F11-13E8 conjugated to Alexa Fluor 647 (VHH, not shown: small tags and cut ends, Alexa Fluor 647 by maleimide chemistry on the C-terminal free cysteine) EVQLVESGGRLVQPGDSLRLSCAASGRTFSDNAMGWFRQAPGKERRFVAGISWAGGSTYYSDSVKGRFTISRDNAKNTVYLQMNSLKPEDTAVYYCAAGLRAWVQRMPKDYNYWGQGTQVTVSSGGGGSGGGGSGGGGSEVQLVESGGGLVQAGGSLRLSCAASRSISPMGWYRQAPGKQRELVAIMPSSGPPIYADSVQGRFTISRDNAKNTVYLQMNSLKPEDTAVYYCNVGGGYWGQGTQVTVSS |  | 79.2 | 2.5 |  |
| 13E8-13F11 conjugated to Alexa Fluor 647 (VHH, not shown: small tags and cut ends, Alexa Fluor 647 by maleimide chemistry on the C-terminal free cysteine) EVQLVESGGGLVQAGGSLRLSCAASRSISPMGWYRQAPGKQRELVAIMPSSGPPIYADSVQGRFTISRDNAKNTVYLQMNSLKPEDTAVYYCNVGGGYWGQGTQVTVSSGGGGSGGGGSGGGGSEVQLVESGGRLVQPGDSLRLSCAASGRTFSDNAMGWFRQAPGKERRFVAGISWAGGSTYYSDSVKGRFTISRDNAKNTVYLQMNSLKPEDTAVYYCAAGLRAWVQRMPKDYNYWGQGTQVTVSS |  | 94.7 | 2.5 |  |
| 13F11-13F11 conjugated to Alexa Fluor 647 (VHH, part only; not given: C-terminal cysteine and His tag, not shown: small tags and cut ends, Alexa Fluor 647 by maleimide chemistry on the C-terminal free cysteine) chain, part: EVQLVESGGRLVQPGDSLRLSCAASGRTFSDNAMGWFRQAPGKERRFVAGISWAGGSTYYSDSVKGRFTISRDNAKNTVYLQMNSLKPEDTAVYYCAAGLRAWVQRMPKDYNYWGQGTQVTVSSGGGGSGGGGSGGGGSEVQLVESGGRLVQPGDSLRLSCAASGRTFSDNAMGWFRQAPGKERRFVAGISWAGGSTYYSDSVKGRFTISRDNAKNTVYLQMNSLKPEDTAVYYCAAGLRAWVQRMPKDYNYWGQGTQVTVSS |  | 63.4 | 3.1 |  |
| 13G10 (VHH) VHH: EVQLVESGGGLVQAGGSLRLSCAASGLTFSSYTMAWYRQAPGKEREVVAAISSGDSIYHEDSVQGRFIISRDNAKNTVYLQMNSLKAEDTAVYYCRANGPGTYWGQGTQVTVSS | 2 |  |  |  |
| 13E8 (VHH) VHH: EVQLVESGGGLVQAGGSLRLSCAASRSISPMGWYRQAPGKQRELVAIMPSSGPPIYADSVQGRFTISRDNAKNTVYLQMNSLKPEDTAVYYCNVGGGYWGQGTQVTVSS |  |  |  | decrease of the fluorescence intensity of labelled 13F11 [7]: < 5% |
